In PMC4954775:
Positions count from the first letter of the chain named. Numbers in names are those of the source.

Substrate: Cc1cc(=O)oc2cc(O[C@@H]3O[C@@H](C(=O)O)[C@@H](O)[C@H](O)[C@H]3O)ccc12
Experiment: purified protein

B1: α-L-iduronidase (IDUA) (Homo sapiens) (protein)
chain: APHLVHVDAARALWPLRRFWRSTGFCPPLPHSQADQYVLSWDQQLNLAYVGAVPHRGIKQVRTHWLLELVTTRGSTGRGLSYNFTHLDGYLDLLRENQLLPGFELMGSASGHFTDFEDKQQVFEWKDLVSSLARRYIGRYGLAHVSKWNFETWNEPDHHDFDNVSMTMQGFLNYYDACSEGLRAASPALRLGGPGDSFHTPPRSPLSWGLLRHCHDGTNFFTGEAGVRLDYISLHRKGARSSISILEQEKVVAQQIRQLFPKFADTPIYNDEADPLVGWSLPQPWRADVTYAAMVVKVIAQHQNLLLANTTSAFPYALLSNDNAFLSYHPHPFAQRTLTARFQVNNTRPPHVQLLRKPVLTAMGLLALLDEEQLWAEVSQAGTVLDSNHTVGVLASAHRPQGPADAWRAAVLIYASDDTRAHPNRSVAVTLRLRGVPPGPGLVYVTRYLDNGLCSPDGEWRRLGRPVFPTAEQFRRMRAAEDPVAAAPRPLPAGGRLTLRPALRLPSLLLVHVCARPEKPPGQVTRLRALPLTQGQLVLVWSDEHVGSKCLWTYEIQFSQDGKAYTPVSRKPSTFNLFVFSPDTGAVSGSYRVRALDYWARPGPFSDPVPYLEVPVPRGPPSPGNP
  Km: 27.0 ± 2.3 µM

B2: α-L-iduronidase (IDUA) (Homo sapiens; P533R) (protein)
chain: B1 chain with P506R
  Km: 35.3 ± 3.66 µM
